Patent US20040009175A1

What was measured:
[1] = target: Recombinant GST-MEK5 [GST: P08515]
GST-MEK4 [GST: P08515] = experiment: cell-based or functional assay
myc-tagged MEK3 = experiment: cell-based or functional assay

Row | activation of GST-MEK4 toward (His)6p38 (in vitro linked kinase assay) (GST-MEK4 [GST: P08515]) | activation of GST-MEK4 towards GST-SAPKβ (in vitro linked kinase assay) (GST-MEK4 [GST: P08515]) | MEK3 activity in anti-myc immunoprecipitates from co-transfected 293 cells (myc-tagged MEK3) | activity toward p38 of myc-tagged MEK3 immunoprecipitated from co-transfected 293 cells (myc-tagged MEK3) | Binder | enhancement of the ability of MEK3 to phosphorylate p38 (in vitro linked kinase assay) ((His)6MEK3) | increase of the ability of GST-MEK6 to phosphorylate (His)6p38 (in vitro linked kinase assay) (GST-MEK6 [GST: P08515]) | activity of MEK1 towards the substrate (His)6ERK2 (in vitro linked kinase assay) (MEK1) | activity of MEK2 towards the substrate (His)6ERK2 (in vitro linked kinase assay) (MEK2) | phosphorylation of GST-MEK5 (in vitro kinase assay) [1]
1 | 5 fold | 150 fold |  |  | (His)6TAO1(1-416) (protein) MRGSHHHHHHMPSTNRAGSLKDPEIAELFFKEDPEKLFTDLREIGHGSFGAVYFARDVRTNEVVAIKKMSYSGKQSTEKWQDIIKEVKFLQRIKHPNSIEYKGCYLREHTAWLVMEYCLGSASDLLEVHKKPLQEVEIAAITHGALQGLAYLHSHTMIHRDIKAGNILLTEPGQVKLADFGSASMASPANSFVGTPYWMAPEVILAMDEGQYDGKVDVWSLGITCIELAERKPPLFNMNAMSALYHIAQNESPTLQSNEWSDYFRNFVDSCLQKIPQDRPTSEELLKHMFVLRERPETVLIDLIQRTKDAVRELDNLQYRKMKKLLFQEAHNGPAVEAQEEEEEQDHGGGRTGTVNSVGSNQSIPSMSISASSQSSSVNSLPDASDDKSELDMMEGDHTVMSNSSVIHLKPEEENYQEEGDPRTRA | approximately 100-fold | by 5-fold | completely unable to increase the activity of MEK1 or MEK2 towards the substrate (His)6ERK2 | completely unable to increase the activity of MEK1 or MEK2 towards the substrate (His)6ERK2 | Recombinant GST-MEK5 was not phosphorylated by (His)6TAO1(1-416)
2 |  |  | 3 to 4 fold | 3 fold | full-length HA-tagged TAO1 (enzyme, not shown: small tags and cut ends) MPSTNRAGSLKDPEIAELFFKEDPEKLFTDLREIGHGSFGAVYFARDVRTNEVVAIKKMSYSGKQSTEKWQDIIKEVKFLQRIKHPNSIEYKGCYLREHTAWLVMEYCLGSASDLLEVHKKPLQEVEIAAITHGALQGLAYLHSHTMIHRDIKAGNILLTEPGQVKLADFGSASMASPANSFVGTPYWMAPEVILAMDEGQYDGKVDVWSLGITCIELAERKPPLFNMNAMSALYHIAQNESPTLQSNEWSDYFRNFVDSCLQKIPQDRPTSEELLKHMFVLRERPETVLIDLIQRTKDAVRELDNLQYRKMKKLLFQEAHNGPAVEAQEEEEEQDHGGGRTGTVNSVGSNQSIPSMSISASSQSSSVNSLPDASDDKSELDMMEGDHTVMSNSSVIHLKPEEENYQEEGDPRTRASAPQSPPQVSRHKSHYRNREHFATIRTASLVTRQMQEHEQDSELREQMSGYKRMRRQHQKQLMTLENKLKAEMDEHRLRLDKDLETQRNNFAAEMEKLIKKHQASMEKEAKVMANEEKKFQQHIQAQQKKELNSFLESQKREYKLRKEQLKEELNENQSTPKKEKQEWLSKQKENIQHFQAEEEANLLRRQRQYLELECRRFKRRMLLGRHNLEQDLVREELNKRQTQKDLEHAMLLRQHESMQELEFRHLNTIQKMRCELIRLQHQTELTNQLEYNKRRERELRRKHVMEVRQQPKSLKSKELQIKKQFQDTCKIQTRQYKALRNHLLETTPKSEHKAVLKRLKEEQTRKLAILAEQYDHSINEMLSTQALRLDEAQEAECQVLKMQLQQELELLNAYQSKIKMQAEAQHDRELRELEQRVSLRRALLEQKIEEEMLALQNERTERIRSLLERQAREIEAFDSESMRLGFSNMVLSNLSPEAFSHSYPGASSWSHNPTGGSGPHWGHPMGGTPQAWGHPMQGGPQPWGHPSGPMQGVPRGSSIGVRNSPQALRRTALGGRTEQGMSRSTSVTSQISNGSHMSYT |  |  |  |  | 
